Assay results from PMC11303751, “Novel enzymatic route to the synthesis of C-8 hydroxyflavonoids including flavonols and isoflavones” (Scientific Reports, 2024).

Columns and labels:
fdeE = target: T1, fdeE (Herbaspirillum seropedicae, UniProt D8J0W9); test: UV-Vis spectrum of purified enzyme; assay type: binding; conditions: FAD co-purified with the enzyme; none added
T1 construct: gene Hsero_1007; codon-optimised ORF in pRhaBAD_12, expressed in E. coli BL21(DE3), purified by Ni IMAC (HisTrap), desalted
T1 sequence (D8J0W9 1-376): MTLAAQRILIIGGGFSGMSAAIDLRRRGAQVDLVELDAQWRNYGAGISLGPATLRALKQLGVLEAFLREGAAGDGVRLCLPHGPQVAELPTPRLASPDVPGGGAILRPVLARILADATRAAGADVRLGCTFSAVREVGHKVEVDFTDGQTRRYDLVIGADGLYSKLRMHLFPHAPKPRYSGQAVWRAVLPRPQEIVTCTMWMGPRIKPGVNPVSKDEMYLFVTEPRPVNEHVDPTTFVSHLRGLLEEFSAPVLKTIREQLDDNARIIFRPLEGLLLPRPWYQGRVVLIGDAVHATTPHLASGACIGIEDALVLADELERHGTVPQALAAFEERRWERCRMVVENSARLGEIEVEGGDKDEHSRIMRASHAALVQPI

purified protein = substrate: O=c1cc(-c2ccc(O)cc2)oc2cc(O)cc(O)c12; test: purified protein; conditions: 1 mM NADPH, GDH/glucose regeneration, 25 mM DTT, 25 mM sodium phosphate pH 7.5, initial substrate 0.05 mM, from a single progress curve
[1] = substrate: O=C1C[C@@H](c2ccc(O)cc2)Oc2cc(O)cc(O)c21; test: UPLC-DAD product-formation progress curve; assay type: biochemical, Herbaspirillum seropedicae; conditions: 1 mM NADPH, GDH/glucose regeneration, 25 mM DTT, 25 mM sodium phosphate pH 7.5, initial substrate 0.05 mM, from a single progress curve
From the text: (§1) UPLC-DAD product-formation progress curve on fdeE

[2] = substrate: O=c1cc(-c2ccc(O)c(O)c2)oc2cc(O)cc(O)c12; test: UPLC-DAD product-formation progress curve; assay type: biochemical, Herbaspirillum seropedicae; conditions: 1 mM NADPH, GDH/glucose regeneration, 25 mM DTT, 25 mM sodium phosphate pH 7.5, initial substrate 0.05 mM, from a single progress curve
From the text: as §1

[3] = substrate: O=c1cc(-c2ccccc2)oc2cc(O)cc(O)c12; test: UPLC-DAD product-formation progress curve; assay type: biochemical, Herbaspirillum seropedicae; conditions: 1 mM NADPH, GDH/glucose regeneration, 25 mM DTT, 25 mM sodium phosphate pH 7.5, initial substrate 0.05 mM, from a single progress curve
From the text: as §1

[4] = substrate: O=c1c(O)c(-c2ccc(O)c(O)c2)oc2cc(O)cc(O)c12; test: UPLC-DAD product-formation progress curve; assay type: biochemical, Herbaspirillum seropedicae; conditions: 1 mM NADPH, GDH/glucose regeneration, 25 mM DTT, 25 mM sodium phosphate pH 7.5, initial substrate 0.05 mM, from a single progress curve
From the text: as §1

Cc1cc2nc3c(=O)[nH]c(=O)nc-3n(C[C@H](O)[C@H](O)[C@H](O)COP(=O)(O)OP(=O)(O)OC[C@H]3O[C@@H](n4cnc5c(N)ncnc54)[C@H](O)[C@@H]3O)c2cc1C [FAD]
UV-Vis spectrum of purified enzyme (fdeE): UV–Vis spectrium of purified fdeE with absorption spectra characteristic for FAD absorbance

B1: fdeE (Herbaspirillum seropedicae SmR1) (protein)
chain: MTLAAQRILIIGGGFSGMSAAIDLRRRGAQVDLVELDAQWRNYGAGISLGPATLRALKQLGVLEAFLREGAAGDGVRLCLPHGPQVAELPTPRLASPDVPGGGAILRPVLARILADATRAAGADVRLGCTFSAVREVGHKVEVDFTDGQTRRYDLVIGADGLYSKLRMHLFPHAPKPRYSGQAVWRAVLPRPQEIVTCTMWMGPRIKPGVNPVSKDEMYLFVTEPRPVNEHVDPTTFVSHLRGLLEEFSAPVLKTIREQLDDNARIIFRPLEGLLLPRPWYQGRVVLIGDAVHATTPHLASGACIGIEDALVLADELERHGTVPQALAAFEERRWERCRMVVENSARLGEIEVEGGDKDEHSRIMRASHAALVQPI
notes: codon-optimised ORF in pRhaBAD_12, expressed in E. coli BL21(DE3), purified by Ni IMAC (HisTrap), desalted
Km (purified protein): 20.2 µM
Vmax (purified protein): 4.02 µM/min
kcat (purified protein): 0.0532 s⁻¹
kcat/Km (purified protein): 2630 M⁻¹ s⁻¹
Km [1]: 0.422 µM
Vmax [1]: 2.09 µM/min
kcat [1]: 0.0277 s⁻¹
kcat/Km [1]: 65500 M⁻¹ s⁻¹
Km [2]: 51.8 µM
Vmax [2]: 6.12 µM/min
kcat [2]: 0.0811 s⁻¹
kcat/Km [2]: 1570 M⁻¹ s⁻¹
Km [3]: 431 µM
Vmax [3]: 88.2 µM/min
kcat [3]: 1.17 s⁻¹
kcat/Km [3]: 2720 M⁻¹ s⁻¹
Km [4]: 14.9 µM
Vmax [4]: 0.512 µM/min
kcat [4]: 0.00678 s⁻¹
kcat/Km [4]: 450 M⁻¹ s⁻¹
